Data on eight molecules can be found in US20040098763A1 (published 2004).

Assay [1] addresses T1, Cdc2b (Cdc2bAt) in DB-vector (A. thaliana, UniProt P04386 1-147; P25859 1-309).
T1 construct: Yeast two-hybrid DB/BD fusion
In words: yeast two-hybrid (MaV203), X-Gal filter assay for β-galactosidase; AD construct x BD construct. The protocol:
(§1) ⁽¹⁾For each interaction test, yeast strain (MaV203) was transformed first with AD constructs listed in the first row, and then with BD constructs listed in the first column of the table following standard protocol. Three independent colonies from each interaction combination were used in X-Gal filter assay for β-galactosidase activity. The results of X-Gal assays were recorded at 2, 4, and 20 hours (overnight). Color intensity determined by visual inspection: “−” = none; “+” = weak; “++” = moderate; “+++” = strong. ⁽²⁾Faint color was visible after overnight incubation.

The target of assay [2] is T2, Cdc2a (Cdc2aAt) in DB-vector (Arabidopsis, UniProt P04386 1-147; P24100 1-294).
T2 construct: Yeast two-hybrid DB/BD fusion; also called Arath;CDKA;1
The description is as above. Here is the method:
as §1

Assay [3] has as its target T3, CycD1 (Arath; CycD1; 1) in DB-vector (A. thaliana, UniProt P04386 1-147; P42751 1-339).
T3 construct: Yeast two-hybrid DB/BD fusion
The description is as above. Here is the method: as §1

In assay [4] the target is T4, CycD2 (Arath; CycD2; 1) in DB-vector (Arabidopsis, UniProt P04386 1-147; P42752 1-361).
T4 construct: Yeast two-hybrid DB/BD fusion; also called cyclin D2
The description is as above. The protocol:
as §1

Assay [5] concerns the target T1, Cdc2b (Cdc2bAt) in DB-vector. In words: yeast two-hybrid, quantification of reporter activity; ICK1 in GAL4-AD vector, partner in DB vector.
Assay [6] deals with T3, CycD1 (Arath; CycD1; 1) in DB-vector. The description is as above.
In assay [7] the target is T4, CycD2 (Arath; CycD2; 1) in DB-vector. Described as above.
Assay [8] addresses T5, CycD3 (Arath; CycD3; 1) in DB-vector (Arabidopsis, UniProt P04386 1-147; P42753 1-376).
T5 construct: Yeast two-hybrid DB/BD fusion; also called cyclin D3
The description is as above.

Assay [9] addresses T6, CycA2 (Arath; CycA2; 2) in DB-vector (A. thaliana, UniProt P04386 1-147; Q147G5 1-436, limits assumed).
T6 construct: Yeast two-hybrid DB fusion
The description is as above.

The target of assay [10] is T7, CycB1 (Arath; CycB1; 1) in DB-vector (A. thaliana, UniProt P04386 1-147; P30183 1-428).
T7 construct: Yeast two-hybrid DB fusion; also called Cyc1At
The assay is described as above.

The target in assay [11] is T8, CycB2 (Arath; CycB2; 2) in DB-vector (A. thaliana, UniProt P04386 1-147; Q39070 1-429).
T8 construct: Yeast two-hybrid DB fusion
The assay is described as above.

The target in a further assay is T9, PCNAAt in DB-vector (Arabidopsis).
T9 construct: Yeast two-hybrid DB/BD fusion; also called Arabidopsis PCNA
Described as above.

Another assay has as its target T10, ATMAP2 in DB-vector (A. thaliana).
T10 construct: Yeast two-hybrid DB fusion; also called MAP kinase
Described as above.

The target of assay [12] is T11, vector alone (DB-vector without a gene) (UniProt P04386 1-147).
T11 construct: also called Control
The assay is described as above.

Assay [13] deals with T2, Cdc2a (Cdc2aAt) in DB-vector. The description is as above.

B1: ICN6 (AD construct) (other, not shown: large carriers)
chain: LSPEKTIMSLREMSETKPKRDSEYEGSNIKRMRLDDDDDVLRSPTRTLSSSSSSSLAYSVSDSGGFCSVALSEEEDDHLSSSISSGCSSSETNEIATRLPFSDLEAHEISETEISTLLTNNFRKQGISSSENLGETAEMDSATTEMRDQRKTEKKKKMEKSPTQAELDDFFSAAERYEQKRFTEKYNYDIVNDTPLEGRYQWVSLKP
notes: also called ICK5
Regarding B1, the binding result in [1] and in assay [2] was “no binding” throughout.

B2: ICN8 (AD construct) (other, not shown: large carriers)
chain: MGKYIRKSKIDGAGAGAGGGGGGGGGGESSIALMDVVSPSSSSSLGVLTRAKSLALQQQQQRCLLQKPSSPSSLPPTSASPNPPSKQKMKKKQQQMNDCGSYLQLRSRRLQKKPPIVVIRSTKRRKQQRRNETCGRNPNPRSNLDSIRGDGSRSDSVSESVVFGKDKDLISEINKDPTFGQNFFDLEEEHTQSFNRTTRESTPCSLIRRPEIMTTPGSSTKLNICVSESNQREDSLSRSHRRRPTTPEMDEFFSGAEEEQQKQFIEKYNFDPVNEQPLPGRFEWTKVDD
notes: Yeast two-hybrid AD fusion; also called ICK7
B2: the binding result in [1] is “no binding”.

B3: ICN7 (AD construct) (other, not shown: large carriers)
chain: MGKYMKKSKITGDISVMEVSKATAPSPGVRTRAAKTLALKRLNSSAADSALPNDSSCYLQLRSRRLEKPSSLIEPKQPPRVHRSGIKESGSRSRVDSVNSAPVAQSSNEDECFDNFVSVQVSCGENSLGFESRHSTRESTPCNFVEDMEIMVTPGSSTRSMCRATKEYTREQDNVIPTTSEMEEFFAYAEQQQQRLFMEKYNFDIVNDIPLSGRYEWVQVKP
notes: also called ICK6
Regarding B3, the binding result in assay [1] is “no binding”.

B4: CKS1At (AD construct) (other, UniProt O23249 1-87, looked up, not shown: large carriers)
chain: MGQIQYSEKYFDDTFEYRHVVLPPEVAKLLPKNRLLSENEWRAIGVQQSRGWVHYAVHRPEPHIMLFRRPLNYQQQQENQAQNMLVK
Regarding B4, the binding result in assay [3] and in assay [4] was “no binding” in each case.

B5: ICN2 (AD construct) (other, not shown: large carriers)
chain: KKKQRERAHKNPREKKMSERKRELAEEASSTSFSPLKKTKLNDSSDSSPDSHDVIVFAVSSSSVASSAALASDECSVTIGGEESDQSSSISSGCFTSESKEIAKNSSSFGVDLEDHQIETETETSTFITSNFRKETSPVSEGLGETTTEMESSSATKRKQPGVRKTPTAAEIEDLFSELESQDDKKKQFIEKYNFDIVNDEPLEGRYKWDRL
notes: also called ICK4
As to B5, the binding result in assay [1] and in assay [2] was “no binding” in each case.

B6: ICDK of Chenopodium rubrum (AD construct) (other, not shown: large carriers)
chain: MAAAATPTSSPAKKIKKVSKSSYNIPQLRSRRKNLSAPENFAELETTPLEVAAVVEEEEVANCSSSEVITTARSDFPPSCCSSNYDQLSSSEPEVVKDDDGLGNRTADPEVESGEASSKQKESHRTEAREATKLDDQDYPATKSTVQIKMPSDSEIEEFFAVAEKDLQKRFSEKYNFDIVKDVPLKGRYDWVPINP
notes: Yeast two-hybrid AD fusion; also called ICKCr; Chenopodium ICDK
Regarding B6, the binding result in [1] and in assay [2] was “no binding” in each case.

B7: ICK2 (AD construct) (other, not shown: large carriers)
chain: MAAVRRRERDVVEENGVTTTTVKRRKMEEEVDLVESRIILSPCVQATNRGGIVARNSAGASETSVVIVRRRDSPPVEEQCQIEEEDSSVSCCSTSEEKSKRRIEFVDLEENNGDDRETETSWIYDDLNKSEESMNMDSSSVAVEDVESRRRLRKSLHETVKEAELEDFFQVAEKDLRNKLLECSMKYNFDFEKDEPLGGGRYEWVKLNP
B7: the binding result in [1] is listed as “no binding”.

B8: ICK1 in a GAL4-activation domain vector (other, not shown: large carriers)
chain: MVRKYRKAKGIVEAGVSSTYMQLRSRRIVYVRSEKSSSVSVVGDNGVSSSCSGSNEYKKKELIHLEEEDKDGDTETSTYRRGTKRKLFENLREEEKEELSKSMENYSSEFESAVKESLDCCCSGRKTMEETVTAEEEEKAKLMTEMPTESEIEDFFVEAEKQLKEKFKKKYNFDFEKEKPLEGRYEWVKLE
notes: Yeast two-hybrid AD fusion; the GAL4 domain is placed first as in standard vectors
Turning to B8, the binding result in assay [1] is listed as “no binding”. Further, the “Quantification (yeast two-hybrid reporter activity)” value in assay [5] was 0; in assay [6] it was 3.13; in assay [7], 14.8; in assay [8], 22.7; in [9] it was 0.03; in [10] it was 0.06. The “Quantification (yeast two-hybrid reporter activity)” value came to 0.05 in assay [11]; 0 with PCNAAt in DB-vector; 0 in the assay with ATMAP2 in DB-vector; 0 in assay [12]; 2.65 in assay [13].
